Measurements taken from patent publication US20220403002A1.

Target: scFv of the anti-GLA antibody, forcibly expressed on M1 cells (Transfectant)
Assay: cell-based or functional assay

Sequence of scFv of the anti-GLA antibody, forcibly expressed on M1 cells (Transfectant) (scFv, as listed by the source): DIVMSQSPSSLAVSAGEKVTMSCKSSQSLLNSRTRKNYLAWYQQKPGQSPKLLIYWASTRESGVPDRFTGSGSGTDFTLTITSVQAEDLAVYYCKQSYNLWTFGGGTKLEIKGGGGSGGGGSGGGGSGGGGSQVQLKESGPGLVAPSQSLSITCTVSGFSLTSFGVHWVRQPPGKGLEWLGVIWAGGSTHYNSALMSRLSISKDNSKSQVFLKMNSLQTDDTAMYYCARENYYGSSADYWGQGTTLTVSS

## CD19 CAR expressed on human T cells (CD19 CAR-T cells)
  cell viability rate of M1 cells (in vitro killing assay, control co-culture): 66.9%
